Source: paper PMC4903074 (Molecular cell, 2015)
Each block holds one binder with its values, some of them ahead of it.

Legend:
[1] = biological target: T1, GST-RPN10 (residues 201–386), wild type (Arabidopsis thaliana, UniProt P55034 201-386); assay: pull-down
T1 sequence (looked up): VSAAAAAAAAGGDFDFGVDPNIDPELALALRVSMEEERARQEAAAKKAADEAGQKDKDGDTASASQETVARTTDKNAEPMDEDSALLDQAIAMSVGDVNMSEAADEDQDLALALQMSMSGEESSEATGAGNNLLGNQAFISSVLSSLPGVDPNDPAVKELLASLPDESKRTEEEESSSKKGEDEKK

[2] = biological target: T1, GST-RPN10 (residues 201–386), wild type; assay: pull-down; remark: listed apart in the source

Kd [1]: ~5.6 µM
B1: His6-ATG8e (natural protein, Arabidopsis thaliana, UniProt Q8S926 1-118, looked up)
chain: MNKGSIFKMDNDFEKRKAEAGRIREKYPDRIPVIVEKAEKSEVPNIDKKKYLVPSDLTVGQFVYVIRKRIKLSAEKAIFIFVDNVLPPTGELMSSVYEDKKDEDGFLYITYSGENTFG

binding result [2]: binds
B2: His6-ATG8f (natural protein, Arabidopsis thaliana, UniProt Q8VYK7 1-117, looked up)
chain: MAKSSFKQEHDLEKRRAEAARIREKYPDRIPVIVEKAEKSDIPTIDKKKYLVPADLTVGQFVYVIRKRIKLSAEKAIFIFVDNVLPPAGALMSSVYEEKKDDDGFLYVTYSGENTFG
